Laboratory results taken from the DeepSol protein solubility set.

Test: soluble on expression in E. coli; label from the status in PepcDB or PDB records

Soluble on expression in E. coli, soluble:
MAHHHHHHMETVDALDYSELVALNQEEALRRVLASYPRIGLQATELGRARRIVQRALYHKRAGDAVFLAYTSNLISSGLRDTFACLARDRLIDGFISTAGGIEEDAIKCLGKTLVGQFSLDGRELRRCGVNRTGNLLVPNDNYCHFENFFMPVLKHLHELQRESRWETMTAPSEMIAAIGAALGCKHPETCSDSLLYWCYRNNIPVFSPALTDGSIGDMIYFYNYSKKGLVLDPIVDVVRLRELGCRNRRCDDSQGGNRSQNNNGRTTCIVLGGGLPKHHLLQNVRADTVVYVSTGLEVDASPSSCNVAEDRANGVLLDNCEVVRVHGDASFVFPLLLCKAETSADTHKDVAA
SFRKGKKRHSSSSSQSSEISTKSKSVDSSLGGLSRSSTVASLDTDSTKSSGQSNNNSDTCAEFRIKYVGAIEKLKLSEGKGLEGPLDLINYIDVAQQDGKLPFVPPEEEFIMGVSKYGIKVSTSDQYDVLHRHALYLIIRMVCYDDGLGVGKSLLALKTTDASNEEYSLWVYQCNSLEQAQAICKVLSTAFDSVLTSEKP
MDSMDHRIERLEYYIQLLVKTVDMDRYPFYALLIDKGLSKEEGEAVMRICDELSEELATQKAQGFVTFDKLLALFAGQLNEKLDVHETIFALYEQGLYQELMEVFIDIMKHFD
MGHHHHHHHHHHSSGHIEGRHMILLEKTQEKKINDKEELIVKEEVETNWDYGCNPYERKIEDLIKYGVVVVDKPRGPTSHEVSTWVKKILNLDKAGHGGTLDPKVTGVLPVALERATKTIPMWHIPPKEYVCLMHLHRDASEEDILRVFKEFTGRIYQRPPLKAAVKRRLRIRKIHELELLDKDGKDVLFRVKCQSGTYIRKLCEDIGEALGTSAHMQELRRTKSGCFEEKDAVYLQDLLDAYVFWKEDGDEEELRRVIKPMEYGLRHLKKVVVKDSAVDAICHGADVYVRGIAKLSKGIGKGETVLVETLKGEAVAVGKALMNTKEILNADKGVAVDVERVYMDRGTYPRMWKRKK
MNRGVIVTGGGHGIGKQICLDFLEAGDKVCFIDIDEKRSADFAKERPNLFYFHGDVADPLTLKKFVEYAMEKLQRIDVLVNNACRGSKGILSSLLYEEFDYILSVGLKAPYELSRLCRDELIKNKGRIINIASTRAFQSEPDSEAYASAKGGIVALTHALAMSLGPDVLVNCIAPGWINVTEQQEFTQEDCAAIPAGKVGTPKDISNMVLFLCQQDFITGETIIVDGGMSKRMIYHGDWNWFYKIDK
MKPHALIGLLAGMLLSSSLYAADSTKPLPLHIGGRVLVESPANQPVSYTYSWPAVYFETAFKGQSLTLKFDDDQNIFRLIVDDKAPVVINKPGKVDYPVESLAPGKHRVRLEKLTETQSTSGRFLGFYTDPSAKPLALPKRKRQIEFIGDSFTVGYGNTSPSRECTDEELFKTTNSQMAFGPLTAKAFDADYQINASSGFGIVRNYNGTSPDKSLLSLYPYTLNNPDQLYHNKHWKPQVIVIGLGTNDFSTALNDNERWKTREALHADYVANYVKFVKQLHSNNARAQFILMNSDQSNGEIAEQVGKVVAQLKGGGLHQVEQIVFKGLDYSGCHWHPSANDDQLLANLLITHLQQKKGIWLEHHHH
MGHHHHHHSHMVRKQSPYEDVQKQSRQHDPYKIIEPTPKKYLEGSAYEVIYNHLSYKHEILDKYIETNTAVFWIKKDDIFSVATILRHLGYECLSEMSAIDLCAKKGHFELFYQFVGFSDSCKNRRRVRVKCVLLPNESVDSLSFLYRSANWSEREAYDMLGIVFDKHPYLKRLIMPHDWVGHPLLRSYPLKGDEFAQWYEVDKIFGKEYREVVGKEQRDSARVDEKDTFNFAKIGYEQGKGEELKEVEEKHAFKKIPFVKDLHKIAPTILKKRL
EKTVRVVINFKKTQKTIVRVSPHASLQELAPIICSKCEFDPLHTLLLKDYQSQEPLDLTKSLNDLGLRELYAMDVNRE
AQIDLNITCRFAGVFHVEKNGRYSISRTEAADLCKAFNSTLPTMAQMEKALSIGFETCRYGFIEGHVVIPRIHPNSICAANNTGVYILTSNTSQYDTYCFNASAPPEEDCTSVTDLPNAFDGPITITIVNRDGTRYVQKGEYRTNPEDIYPSNPTDDDV
GPGSMKSPHMARIGNSVYRDICPEDDPLCSNFGFEDYDLSRPTPMMRMSLLYNLHVSGESPSPAIDNMFRLAYRSRHGLVKIYKVMNVSAESKAWVADPKNRKCDAPGSWLCTGQYPPAKEIQEMLARRIDYGQLEDFNRGKRDDAYYRAYMRRIRNQGRG

Soluble on expression in E. coli, not soluble:
MGSDKIHHHHHHMNALPLVSVVVPNYNYKRYLNLRIQSILQQTYQNIELILLDDASTDGSEEVLSDYQDHAKVSHILLNEHNTGNPFKQWFKGMQLAKGKYIWIAEADDLCELTFLEKVVPLMEKYQQAAVCFAGSKYIDKDGNVLSYDMNKWKSAIPPYAVFNGKTYAEHNLYWRSYIANASSAIFRKSMVNAQNMEQCLQMRYSGDWLFWFYMAMQGDIIERYEVLNYFRQHNQKVTVKAENNGGGKSEDIEIVRIMEQHLTHLSRYKRCIRRGMLYNRIAKLSTTDRVKLQLWELLRQKLNGTRKDGRLERLNRIARLFCPFVLTMKRDRLTPSREIG
MRMRHKPWADDFLAENADIAISNPADYKGKWNTVFGNDNPIHIEVGTGKGQFISGMAKQNPDINYIGIELFKSVIVTAVQKVKDSEAQNVKLLNIDADTLTDVFEPGEVKRVYLNFSDPWPKKRHEKRRLTYSHFLKKYEEVMGKGGSIHFKTDNRGLFEYSLKSFSEYGLLLTYVSLDLHNSNLEGNIMTEYEEKFSALGQPIYRAEVEWRTLEHHHHHH
RTLELAFSSEAAEVQTRSGVEILGHRINEVRMHRLDNGAALLLDHNPREHIGVVESASIDSDHRGRAIVRFGRSPRAEEILRDVLDGIRKHVSVGYLVHQVEVIGQRDAGPLYRATDWEPIEISIVSIPADPSVGIGRALENLPQD
MKGRRPPASPTAAASAQLELPLLAPPAAPDAAPPSADPAQPDPAAPLGPDQRRLALGERTLVYHLKRSSRRTIGFVVDDRGLSITAPRWVTLAEIEHAIAEKQKWIFAKLAEWHTSAARRVLPPMRWEDGATLPFLGKPVMLKLESPIGALVFDADMRTLHLGLPPTATGQQIKDRVQGWLQTQARRLFGERLDVYAERLGVRHSAYALSSAATRWGSCTADGKIRLNWRLVHFPLSLIDYVVAHELAHLKEMNHSPRFWDTVESIFPEFREAREQLRSHPPEYLPVFLEHHHHHH
MSLKRFYSLFALPLITAATWANEPLPDRQTELPAVKKENHGEYLQPRDLSKIPNTAFGDQVKRGYSLFVNSQQMRGKYVGNEQNCVNCHMEAGRKANAAPLWAAYMAYPAYRKKNDRVNSYADRIQGCFEYSMNGKAPAYDSPEIVALSAYAYWLAMGGLLDSYGMNDEAVPELDIKALQVGGKAQDFPLPDAIAQALPVKERGNLAGRGYPKIAAPKQEPSPERGALVYEKNCETCHRADGSGIKGTDGHSYIPPLWGEFAYNWGAGMHRINTAAYFIYENMPLGKSVQLTEQEAWDVAAYINSHERPQDPRFKGNVTANAEKYHQHQGYYGKTLNGKQIGKNAFASGTEGHHHHHH
MVYKNILVGLDGSSQADNAFKVACGLANALSADLHPIWIVNRDRGMDSSFGVNEDFYRDQYHQVQDKLVSYVEDAKKAGLKVTGEALVGNIKLVLANEYPKEHGIDLIVLGNTGLNTVEKLVVGSHTSYVIRNSACDVLVVK
MQFSTTPTLEGQSIVEYCGVVTGEAILGANIFRDFFAGIRDIVGGRSGAYEKELRKAREIAFQELGEQAKALGADAVVGIDIDYETVGKDGSMLMVSVSGTAVKTRR
DAPLPHLRFALASCANWEAGFFAAYGDIARRADAGELEMLIFLGDYIYEYATGMFAGKDGVVRPHQPLHETITLEHYRTRYGHYRSDNHLQAAHAALPWIVMWDDHESANNSNREGAQNHSADEGSWVDRQNAARQVFLEWMPIRQEDTLYRSFTFGDLATLSLLDLRSFRDPAPSQQQWLEGQRADTMMGSQQFEWLKSNVEHTTTTWNIIGSSVMFAPMAITGQPLFQIPEPIPANLDQWDGYSRERDRLLAVLADFATPTLFLSGDIH
